The nanobody polyreactivity screen of Harvey et al. (2022)

Assay: yeast display, Sf9 membrane polyspecificity reagent, FACS + sequencing; frameworks hold sequencing errors
How it was run: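 Galactose-induced (36–48 hours) yeast carrying a synthetic nanobody display library were exposed to 10% biotinylated, detergent-solubilized Sf9 membrane reagent at 4 °C for 1 hour. FACS followed streptavidin microbead enrichment, using low and high (top ~1%) gates for expression (anti-HA) and reagent binding (streptavidin). Colony PCR, MiSeq 2 × 250 sequencing and CDR-length filtering followed. Labels for polyreactivity reflect the gate of origin.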

Sequence | polyreactivity (PSR sort gate)
QVQLVESGGGLVQAGGSLRLSCAASGRIFSTYAMGWYRQAPGKERELVAAISYSGTTTYYADSVKGRFTISRDNAKNTVYLQMNSLKPEDTAVYYCAAYRYSTWSYGRDYYWGQGTQVTVSS | high polyreactivity
QVQLVESGGGIVQAGGSLRLSCAASGITSYFNAMGWYRQAPGKERELVAITWNGGSTYYADSVKGRFTISRDNAMNTVYLQMNSLKPEDTAVYYCAARYRRYNRKYDYWGQGTQVTVSS | high polyreactivity
QFQLVEAGGGLVQAGGSLRLSCAASGRIFTYYAMGWYSQAPGKERELVAAITGSGGSTYYADSVKGRFTISRDNAKTTVYLQMISLKPEDTAVYYCARTDRRLGAHQGDYWGQGTQVTVSS | high polyreactivity
QVQLVESGGGLVQAGGSLRLSCAASGRIFGYYAMGWYRQAPGKERELVAAISYSTGGTSTYADSVKGRFTISRDNAKNTVYLQMNSLKPDDTAVYYCAKRIFTSARLNYWGQGTQVTVSS | high polyreactivity
QVQLVESGGGLVQAGGSLRLSCADSGSTFYRNAMGWYRQAPGKERELVASINNRGSTYYADSVKGRFTISRDNAKNTVYLQMNRLKPEDTAVYYFAATESWDYDYWGQGTQVTVSS | low polyreactivity
QVQHVESGGGLVQAGGSLRLSCSASGFTLTAYAMGWSRQPPGKEREFVAAISTSGTRTYYADSVKGRFTISRDNAKNTVYLQMNSLKQEDTAVYYCAARYSGYQYWKFNYWGQGTQVTVSS | high polyreactivity
QVQLVESGGGLVQAGGSLRLSCAASGRIFRVYAMGWYRQAPGKERELVAAISSSGSSTYYADSVKGRFTISRDNAKYTVYLQMNSLKPEDTAVYYCAARGYDISSRYDYWGQGTQVTVSS | high polyreactivity
QVQLVESGGGLVQAGGSLRLSCAASGFTLDYYAMGLYRQAPGKERELVAAITSGSITYYADSVKGRFTISRDNAKNTVYLQMNSLKPEDTAVYYCAAVGLVRYGYWGQGTQVTVSS | high polyreactivity
QVQLVESGGGLVQAGGSLRLSCAASGRTSFQYAMGWYRQAPGKERELVAAISWSGGSTFYADSVKGRFTISRDNAKNTVYLQMNSLKPEDTAVYYCNAVSTDSWAYHGDYWGQGTQVTVSS | low polyreactivity
QVQLVESGGGLVHAGGSLRLSCAASGSTFPRNDMGWYRQAPGKERELVAAISRGGSTNYADSVKGRFTISRDNAKNTVYLQMNSLKPEDTAVYYCAAQIFESAYGMDYWGQGTQVTVSS | low polyreactivity
QVQLVESGGGLVQAGGSLRLSCAASGNIFRKYAMGWYRQAPGKERELVATISYSGGSTYYADSVKGRFTISRDNAKNTVYLQMNSLKPEDTAVYYCNAVKDLDSSFDYWGQGTQVTVSS | low polyreactivity
QVQLVESGGGLVQAGGSLRLSCAASGFTFVRYAMGWYRQAPGKERELVAVISRSGGSTNYADSVKGRFTISRDNAKNTVYLQMNSLKPEDTAVYYCAASLQYRRLVKGGDYWGQGTQVTVSW | high polyreactivity
QVQLVSGGGLVHSGGSLRLSCAASGITFESNAMGWYRQGPGKEREFVAAISYDGGDTYYADSVKGRFTISRDNAKNTVYLQMNSLKPDDTSVYYCAAETGWTMDYWGQGTQVTVSS | low polyreactivity
QVQLVESGGGLVQAGGSLRLSCAASGRTFETNAMGWYRQAPGKERELVASINWSGGSTYYADSVKGRFTISRDNAKNTVYLQMNILKPEDTAVYYCAADHSYWDWWSYYYWGQGTQVTVSS | low polyreactivity
QVQLQESGGGLVQAGGSQRLSCAASGSISILQSRGCYRQAPGKERELVAGINWGATTYYADSVKGRLTTSRDYAKNTVYLQMNSLKPEDTAVYYCAVPTYYTYPLLYWGQGTQVTVSS | low polyreactivity
QVQLVESGAGLVQAGGSLRLSCAASGRTFNFYTMGWYRQAPGKERELVAAIDASGGRTYYADSVKGRFTISRDNAKNTVYLQMNSLKPEDTAVYYCAKYPRYSYVGYGYWGQGTQVTVSS | high polyreactivity
QVQLVESGGGLVQAGGSLRLSCAASGRTQSANAMGWYREAPGKERELVATISTRGGRTYYADSVKGRFTISRDNAKNTVYLQMNSLKPEDTAVYYCAVTIRAKYTMKEDYWGQGTQVTVSS | low polyreactivity
